From paper PMC9295147 (2022) come the findings set out here.

For assay [1], the target named is T1, mExoS peptide (C-terminal region of exoenzyme S).
T1 chain: QGLLDALDLAS
Description: fluorescence polarisation. (In fluorescence polarisation assays a small probe gives low polarisation when free and higher when bound to something large.)

In assay [2] the target is T2, dT14-3-3_PKB/CHK1, unphosphorylated (Tobacco | ).
T2 chain: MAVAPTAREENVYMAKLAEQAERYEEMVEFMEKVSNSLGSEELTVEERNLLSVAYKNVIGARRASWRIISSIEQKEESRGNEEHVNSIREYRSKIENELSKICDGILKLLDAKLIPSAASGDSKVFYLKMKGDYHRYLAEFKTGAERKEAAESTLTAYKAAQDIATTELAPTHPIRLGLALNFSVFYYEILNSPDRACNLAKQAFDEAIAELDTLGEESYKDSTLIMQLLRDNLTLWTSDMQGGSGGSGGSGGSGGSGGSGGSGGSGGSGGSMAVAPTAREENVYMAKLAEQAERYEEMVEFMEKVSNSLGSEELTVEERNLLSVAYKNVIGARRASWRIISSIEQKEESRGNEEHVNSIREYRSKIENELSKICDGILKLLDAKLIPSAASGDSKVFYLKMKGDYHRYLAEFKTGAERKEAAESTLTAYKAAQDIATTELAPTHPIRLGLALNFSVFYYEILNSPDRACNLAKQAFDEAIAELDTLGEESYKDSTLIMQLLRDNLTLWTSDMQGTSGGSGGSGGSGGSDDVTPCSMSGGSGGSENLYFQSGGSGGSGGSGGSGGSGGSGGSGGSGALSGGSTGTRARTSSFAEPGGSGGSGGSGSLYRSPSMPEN
Description: FP.

For assay [3], the target named is T3, dT14-3-3_biPKA, unphosphorylated (Tobacco | ).
T3 chain: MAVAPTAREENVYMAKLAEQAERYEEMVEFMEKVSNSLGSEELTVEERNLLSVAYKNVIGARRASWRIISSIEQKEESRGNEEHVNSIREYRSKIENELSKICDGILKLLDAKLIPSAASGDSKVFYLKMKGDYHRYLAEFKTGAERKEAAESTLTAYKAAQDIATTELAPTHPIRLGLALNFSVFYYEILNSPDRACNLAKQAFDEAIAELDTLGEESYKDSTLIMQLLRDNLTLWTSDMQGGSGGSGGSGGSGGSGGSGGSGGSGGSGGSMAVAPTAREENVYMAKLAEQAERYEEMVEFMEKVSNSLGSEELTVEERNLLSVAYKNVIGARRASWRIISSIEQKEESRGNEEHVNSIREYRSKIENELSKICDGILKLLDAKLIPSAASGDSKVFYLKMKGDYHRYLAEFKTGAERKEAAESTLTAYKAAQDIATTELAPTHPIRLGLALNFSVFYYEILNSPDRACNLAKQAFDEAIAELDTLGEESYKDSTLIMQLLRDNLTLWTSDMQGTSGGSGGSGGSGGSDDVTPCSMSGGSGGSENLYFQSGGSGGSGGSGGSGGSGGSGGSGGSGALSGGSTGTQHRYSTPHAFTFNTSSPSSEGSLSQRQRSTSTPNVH
Description: FP.

Assay [4] has as its target T4, dimeric Tobacco 14-3-3 scaffold (Tobacco).
T4 chain: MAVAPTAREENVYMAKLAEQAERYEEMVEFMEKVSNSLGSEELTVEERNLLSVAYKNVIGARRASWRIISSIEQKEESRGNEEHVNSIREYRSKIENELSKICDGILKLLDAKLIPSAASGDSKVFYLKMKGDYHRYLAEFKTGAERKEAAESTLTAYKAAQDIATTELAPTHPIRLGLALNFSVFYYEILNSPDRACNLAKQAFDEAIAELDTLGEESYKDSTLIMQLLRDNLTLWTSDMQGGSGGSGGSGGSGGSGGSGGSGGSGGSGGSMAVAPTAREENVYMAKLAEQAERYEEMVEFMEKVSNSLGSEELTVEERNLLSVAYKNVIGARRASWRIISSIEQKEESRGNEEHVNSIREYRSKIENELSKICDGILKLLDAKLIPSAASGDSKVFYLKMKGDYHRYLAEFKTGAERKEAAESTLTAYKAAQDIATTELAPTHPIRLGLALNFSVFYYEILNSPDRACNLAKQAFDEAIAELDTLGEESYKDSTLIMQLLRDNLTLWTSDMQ
Description: FP.

The target of assay [5] is T5, dT14-3-3_biCHK1, unphosphorylated (Tobacco | ).
T5 chain: T2 chain with R586L, A587Y, T589S, S590P, F592M, A593P, P595N
Description: FP.

In assay [6] the target is T6, dT14-3-3_PKA/PKB, unphosphorylated (Tobacco | ).
T6 chain: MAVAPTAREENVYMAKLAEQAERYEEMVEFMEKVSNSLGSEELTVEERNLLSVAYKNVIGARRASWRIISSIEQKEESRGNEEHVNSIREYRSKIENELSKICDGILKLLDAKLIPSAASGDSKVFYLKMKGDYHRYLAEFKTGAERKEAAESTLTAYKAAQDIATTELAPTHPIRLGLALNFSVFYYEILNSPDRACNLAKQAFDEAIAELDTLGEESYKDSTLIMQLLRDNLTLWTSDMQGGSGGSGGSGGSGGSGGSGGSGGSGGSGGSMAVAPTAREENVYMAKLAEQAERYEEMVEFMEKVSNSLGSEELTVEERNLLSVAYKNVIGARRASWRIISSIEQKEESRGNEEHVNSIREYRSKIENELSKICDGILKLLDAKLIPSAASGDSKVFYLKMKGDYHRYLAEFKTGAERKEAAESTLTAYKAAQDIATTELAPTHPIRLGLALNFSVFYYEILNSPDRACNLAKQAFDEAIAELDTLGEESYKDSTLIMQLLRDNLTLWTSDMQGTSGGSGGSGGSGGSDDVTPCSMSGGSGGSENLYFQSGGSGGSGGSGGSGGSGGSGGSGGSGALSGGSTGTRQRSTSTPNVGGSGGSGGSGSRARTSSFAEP
Nature of the assay: FP.

The target of assay [7] is T7, dT14-3-3_PKA/CHK1, unphosphorylated (Tobacco | ).
T7 chain: T2 chain with A587Q, T589S, S590T, F592T, A593P, E594N, P595V
Nature of the assay: FP.

The target in assay [8] is T8, dT14-3-3_biPKB, unphosphorylated (Tobacco | ).
T8 chain: T2 chain with L607R, Y608A, S610T, P611S, M613F, P614A, N616P
Nature of the assay: FP.

Positions count from the first letter of the chain named.

B1: dT14-3-3_biPKB, phosphorylated by PKB (protein)
chain: T2 chain with L607R, Y608A, S610T, P611S, M613F, P614A, N616P
modifications: not checked
B1: the fold decrease in binding affinity relative to the unphosphorylated state in assay [1] stood at 10 fold.

B2: dT14-3-3_biPKA, phosphorylated by PKA (protein)
chain: T3 chain
modifications: not checked
B2 displayed a fold decrease in binding affinity relative to the unphosphorylated state in assay [1] of 35 fold.

For QGLLDALDLAS [mExoS peptide (C-terminal region of exoenzyme S)], the dissociation constant (Kd) – broadly, the equilibrium constant for the complex coming apart – was determined as 6.62 µM in assay [2]; 5.77 µM in assay [3]; 9.69 µM in assay [4]; 7.57 µM in assay [5]; 6.43 µM in assay [6]; 6.64 µM in assay [7]. This molecule also yielded a Kd in assay [8] of 6.91 µM.
